The target in the assay is T1, AM receptor (Homo sapiens, UniProt O60895+Q16602).
T1 construct: expressed in transfected cells; host or cells: HEK293 cell line
The experiment in a line: Intracellular cAMP concentration-increasing effect in HEK293 cell line caused to express an AM receptor.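 On all read-outs here: cAMP inside confluent receptor-expressing cells quantified by ELISA after 15 min exposure to each peptide at 10^−8 mol/L alongside 0.5 mM IBMX.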 Particulars: for Intracellular cAMP concentration-increasing effect (%): 10^−8 mol/L, 15 minutes, 0.5 mM IBMX; for influence of N-terminal deletion of the peptide moiety on the intracellular cAMP concentration-increasing effect: in words. Format: cell-based.

The mark [1] stands for this setting: percentage with respect to h.AM (1-52).
The mark [2] stands for this setting: percentage with respect to h.AM (6-52).
The mark [3] stands for this setting: percentage with respect to h.AM (16-52).

Marks after values point to notes of the source that are not given here. Positions of bridges follow the written chain, without caps; N, C: chain ends. GL‑2‑branched CH3O‑PEG (40k)‑CH2 = glycerol skeleton-containing 2-branched methoxy-PEG (40 kDa) attached via alkylamine (CH2) linkage; GL‑2‑branched CH3O‑PEG (40k)‑CO = glycerol skeleton-containing 2-branched methoxy-PEG (40 kDa) attached via urethane (CO) linkage

T1 sequence (Q16602 23-461): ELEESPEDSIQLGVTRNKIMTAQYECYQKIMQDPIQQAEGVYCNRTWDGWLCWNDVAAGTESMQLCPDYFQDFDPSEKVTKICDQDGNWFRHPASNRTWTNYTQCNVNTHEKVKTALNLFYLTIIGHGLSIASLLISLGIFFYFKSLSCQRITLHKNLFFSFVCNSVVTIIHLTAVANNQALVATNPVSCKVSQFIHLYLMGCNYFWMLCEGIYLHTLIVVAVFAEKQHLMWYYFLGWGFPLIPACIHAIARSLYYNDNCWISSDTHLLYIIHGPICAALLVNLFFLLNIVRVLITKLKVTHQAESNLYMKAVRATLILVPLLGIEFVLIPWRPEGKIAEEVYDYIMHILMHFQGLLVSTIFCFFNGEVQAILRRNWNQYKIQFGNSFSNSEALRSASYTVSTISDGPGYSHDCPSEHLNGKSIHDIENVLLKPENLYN
T1 sequence (O60895 43-175): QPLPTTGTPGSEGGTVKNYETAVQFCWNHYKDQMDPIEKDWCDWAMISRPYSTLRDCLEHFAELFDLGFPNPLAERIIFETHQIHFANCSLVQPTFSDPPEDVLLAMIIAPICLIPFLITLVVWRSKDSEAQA

Turning to “CH3O-PEG (5k)-(CH2)2—CH2-^αNH-(h.AM (6-52)) ({CH3O‑PEG (5k)‑(CH2)2—CH2}-NNFQGLRSFGCRFGTCTVQKLAHQIYQFTDKDKDNVAPRSKISPQGY-NH2; disulfide 11-16 (inferred); ends not checked) [Compound (18)]”, the “influence of N-terminal deletion of the peptide moiety on the intracellular cAMP concentration-increasing effect” value was “suppressed the influence of N-terminal deletion”. For the same substance, the “Intracellular cAMP concentration-increasing effect (%)” value under setting [1] amounted to 90%.
Taken in the same sequence, the figures for “CH3O-PEG (5k)-(CH2)2—CH2-^αNH-(h.AM (11-52)) ({CH3O‑PEG (5k)‑(CH2)2—CH2}-LRSFGCRFGTCTVQKLAHQIYQFTDKDKDNVAPRSKISPQGY-NH2; disulfide 6-11 (inferred); ends not checked) [Compound (19)]” were “suppressed the influence of N-terminal deletion” and 80%.
For “CH3O-PEG (5k)-(CH2)2—CH2-^αNH-(h.AM (16-52)) ({CH3O‑PEG (5k)‑(CH2)2—CH2}-CRFGTCTVQKLAHQIYQFTDKDKDNVAPRSKISPQGY-NH2; disulfide 1-6 (inferred); ends not checked) [Compound (20)]” the same measures were “suppressed the influence of N-terminal deletion” and 39%.
As to “CH3O-PEG (5k)-(CH2)5-CO-^αNH-(h.AM (11-52)) ({CH3O‑PEG (5k)‑(CH2)5‑CO}-LRSFGCRFGTCTVQKLAHQIYQFTDKDKDNVAPRSKISPQGY-NH2; disulfide 6-11 (inferred); ends not checked) [Compound (16), amide linkage-type PEG (5k) adrenomedullin derivative, reference compound]”, the “influence of N-terminal deletion of the peptide moiety on the intracellular cAMP concentration-increasing effect” value is “significantly decreased”. The “Intracellular cAMP concentration-increasing effect (%)” value (percentage with respect to h.AM (11-52)) is given as 1**^) %.
Take “CH3O-PEG (5k)-(CH2)5—CO-^αNH-(h.AM (6-52)) ({CH3O‑PEG (5k)‑(CH2)5—CO}-NNFQGLRSFGCRFGTCTVQKLAHQIYQFTDKDKDNVAPRSKISPQGY-NH2; disulfide 11-16 (inferred); ends not checked) [Compound (15), amide linkage-type PEG (5k) adrenomedullin derivative, reference compound]”: the “influence of N-terminal deletion of the peptide moiety on the intracellular cAMP concentration-increasing effect” value is “significantly decreased”. Besides, the “Intracellular cAMP concentration-increasing effect (%)” value under setting [2] is recorded as 101*^) %.
As for “CH3O-PEG (5k)-(CH2)5—CO-^αNH-(h.AM (16-52)) ({CH3O‑PEG (5k)‑(CH2)5—CO}-CRFGTCTVQKLAHQIYQFTDKDKDNVAPRSKISPQGY-NH2; disulfide 1-6 (inferred); ends not checked) [Compound (17), amide linkage-type PEG (5k) adrenomedullin derivative, reference compound]”, the “influence of N-terminal deletion of the peptide moiety on the intracellular cAMP concentration-increasing effect” value is reported as “significantly decreased”. Further, the “Intracellular cAMP concentration-increasing effect (%)” value under setting [3] was 9***^) %.
In the case of “CH3O-PEG (20k)-(CH2)2—CH2-^αNH-(h.AM (6-52)) ({CH3O‑PEG (20k)‑(CH2)2—CH2}-NNFQGLRSFGCRFGTCTVQKLAHQIYQFTDKDKDNVAPRSKISPQGY-NH2; disulfide 11-16 (inferred); ends not checked) [Compound (21)]”, the “influence of N-terminal deletion of the peptide moiety on the intracellular cAMP concentration-increasing effect” value is recorded as “high intracellular cAMP concentration-increasing effect without the influence of the N-terminal deletion”. For the same substance, under setting [2], the “Intracellular cAMP concentration-increasing effect (%)” value is 98*^) %.
As for “CH3O-PEG (20k)-(CH2)2—CH2-^αNH-(h.AM (11-52)) ({CH3O‑PEG (20k)‑(CH2)2—CH2}-LRSFGCRFGTCTVQKLAHQIYQFTDKDKDNVAPRSKISPQGY-NH2; disulfide 6-11 (inferred); ends not checked) [Compound (22)]”, the “influence of N-terminal deletion of the peptide moiety on the intracellular cAMP concentration-increasing effect” value was “high intracellular cAMP concentration-increasing effect without the influence of the N-terminal deletion”. In addition, under setting [1], the “Intracellular cAMP concentration-increasing effect (%)” value came to 97%.
For “CH3O-PEG (20k)-(CH2)2—CH2-^αNH-(h.AM (16-52)) ({CH3O‑PEG (20k)‑(CH2)2—CH2}-CRFGTCTVQKLAHQIYQFTDKDKDNVAPRSKISPQGY-NH2; disulfide 1-6 (inferred); ends not checked) [Compound (23)]” the same measures were “high intracellular cAMP concentration-increasing effect without the influence of the N-terminal deletion” and 97%.
For the substance “GL-2-branched CH3O-PEG (20k)-CO-^αNH-(h.AM (6-52)) ({GL‑2‑branched CH3O‑PEG (20k)‑CO}-NNFQGLRSFGCRFGTCTVQKLAHQIYQFTDKDKDNVAPRSKISPQGY-NH2; disulfide 11-16 (inferred); ends not checked) [Compound (30)]”, under setting [1], the “Intracellular cAMP concentration-increasing effect (%)” value was 99%.
Same read-out and setting: the result for “GL-2-branched CH3O-PEG (20k)-CO-^αNH-(h.AM (11-52)) ({GL‑2‑branched CH3O‑PEG (20k)‑CO}-LRSFGCRFGTCTVQKLAHQIYQFTDKDKDNVAPRSKISPQGY-NH2; disulfide 6-11 (inferred); ends not checked) [Compound (31)]” reads 104%; that for “GL-2-branched CH3O-PEG (20k)-CO-^αNH-(h.AM (16-52)) ({GL‑2‑branched CH3O‑PEG (20k)‑CO}-CRFGTCTVQKLAHQIYQFTDKDKDNVAPRSKISPQGY-NH2; disulfide 1-6 (inferred); ends not checked) [Compound (32)]”, 96%.
As to “GL-2-branched CH3O-PEG (40k)-CH2-^αNH-(h.AM (1-52)-Gly) [Compound (36)]”, where the note is “percentage with respect to h.AM (1-52)-Gly”, the “Intracellular cAMP concentration-increasing effect (%)” value is reported as 96****^) %.
Take “GL-2-branched CH3O-PEG (40k)-CH2-^αNH-(h.AM (6-52)) ({GL‑2‑branched CH3O‑PEG (40k)‑CH2}-NNFQGLRSFGCRFGTCTVQKLAHQIYQFTDKDKDNVAPRSKISPQGY-NH2; disulfide 11-16 (inferred); ends not checked) [Compound (29)]”: the “Intracellular cAMP concentration-increasing effect (%)” value under setting [1] is 77%.
Turning to “GL-2-branched CH3O-PEG (40k)-CH2-^αNH-(h.AM (16-52)) ({GL‑2‑branched CH3O‑PEG (40k)‑CH2}-CRFGTCTVQKLAHQIYQFTDKDKDNVAPRSKISPQGY-NH2; disulfide 1-6 (inferred); ends not checked) [Compound (24)]”, the “Intracellular cAMP concentration-increasing effect (%)” value under setting [3] is 93***^) %.
“GL-2-branched CH3O-PEG (40k)-CO-^αNH-(h.AM (16-52)) ({GL‑2‑branched CH3O‑PEG (40k)‑CO}-CRFGTCTVQKLAHQIYQFTDKDKDNVAPRSKISPQGY-NH2; disulfide 1-6 (inferred); ends not checked) [Compound (33)]”: the “Intracellular cAMP concentration-increasing effect (%)” value under setting [1] was 61%.
“GL-4-branched CH3O-PEG (40k)-CO-^αNH-(h.AM (6-52)) ({GL‑4‑branched CH3O‑PEG (40k)‑CO}-NNFQGLRSFGCRFGTCTVQKLAHQIYQFTDKDKDNVAPRSKISPQGY-NH2; disulfide 11-16 (inferred); ends not checked) [Compound (34)]”: the “Intracellular cAMP concentration-increasing effect (%)” value under setting [1] is listed as 83%.

(Values after US11478551B2, “Long-acting adrenomedullin derivative” (University of Miyazaki, priority 2015, dated 2022).)
